In patent US20260049151A1 (SHENGHE CHINA BIOPHARMACEUTICAL, published 2026):

Target: T1, Human 4-1BB His (human, UniProt Q07011 24-186)
T1 construct: Bought protein; lots 198-2146F1-W6 and 2407c-214FF1-YC; also called human 4-1BB protein; 4-1BB protein; not shown: His tag
Assay: ELISA: Human 4-1BB His coated (0.2 ug/mL), antibody titrated, goat anti-human IgG Fc detection (Example 3)
Protocol: Human 4-1BB His (manufacturer: Acro, CAT: 41B-H5258, LOT: 198-2146F1-W6) was diluted to 0.2 μg/mL with a coating solution (1×PBS, pH7.4), and coated in 96-well ELISA plate at 100 μL/well overnight at 4° C. The coating solution was poured off. Each well was washed with 1×PBST at 300 μL, washed 4 times with a plate washer, and patted dry on a flat paper. It was blocked with 3% skim milk powder at 300 μL/well, and incubated at 37° C. for 1 h. The blocking solution was poured off, washed 4 times with a plate washer, and patted dry on a flat paper. Negative control and positive control were set up. […] The variable region of the antibody sequence of the positive control consists of SEQ ID NO: 15 and SEQ ID NO: 19, with the addition of the constant region of human IgG1 (SEQ ID NO: 46 and SEQ ID NO: 47). The positive control and antibody were diluted to 10 μg/mL with 3% skim milk powder as the starting concentration, and then diluted by 3-fold gradient (11 gradients in total), and a blank well was set up and only the diluent was added. It was incubated at 37° C. for 1 h at 100 μL/well. The liquid in the well was discarded, washed 4 times with a plate washer, and patted dry on a flat paper. Goat anti-human IgG Fc was diluted with 3% skim milk powder at 1:20000, and incubated at 37° C. for 1 h at 100 μL/well. It was washed 6 times with a plate washer, and patted dry on a flat paper. TMB color developing solution was added at 100 μL/well, and wrapped with aluminum foil. Color development was performed at 37° C. in the dark for 8 min. Termination solution 1M HCl was added to terminate the color development reaction at 100 μL/well. Readings were taken at 450 nm on an ELISA reader.

T1 sequence (Q07011 24-186 limits assumed): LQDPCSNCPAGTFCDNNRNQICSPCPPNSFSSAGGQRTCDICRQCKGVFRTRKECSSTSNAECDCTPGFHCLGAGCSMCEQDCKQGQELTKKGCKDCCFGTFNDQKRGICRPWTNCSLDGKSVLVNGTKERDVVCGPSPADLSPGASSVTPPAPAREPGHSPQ

EC50 (read off the curve): ~0.09 nM
B1: Antibody M1 (bispecific antibody, human IgG1, kappa)
light: DIQMTQSPSSLSASLGDRVTISCSASQGISNYLNWYQQKPDGTVKLLIYYTSTLHSGVPSRFSGSGSGTDYTLTISSLQPEDIATYYCQQYSKLPWTFGGGTKLEIKRTVAAPSVFIFPPSDEQLKSGTASVVCLLNNFYPREAKVQWKVDNALQSGNSQESVTEQDSKDSTYSLSSTLTLSKADYEKHKVYACEVTHQGLSSPVTKSFNRGEC
heavy: not shown
notes: IgG1 subtype; full-length 4-1BB antibody with TNFR2 VHH at the N-terminus of the heavy chains
